In patent US20040071694A1 one finds immunofluorescence score (arbitrary scale of 0-4) (score out of 4) data, which are given here for one substance.

For this assay, the target named is biotinylated EpoR (Abbott CHO cell derived ref.# RB69084:4) (UniProt P19235). The experiment in a line: immunofluorescence microscopy on EpoR-coated sheep red blood cells.
Chain of biotinylated EpoR (Abbott CHO cell derived ref.# RB69084:4) (P19235 25-250 limits assumed): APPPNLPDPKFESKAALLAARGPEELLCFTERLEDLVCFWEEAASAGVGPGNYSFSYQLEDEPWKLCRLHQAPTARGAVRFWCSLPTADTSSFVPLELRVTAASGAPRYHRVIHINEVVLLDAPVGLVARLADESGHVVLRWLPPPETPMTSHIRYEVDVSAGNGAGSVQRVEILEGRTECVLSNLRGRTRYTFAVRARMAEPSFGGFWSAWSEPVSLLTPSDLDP

Consider “murine antiEpoR antibody (R&D Systems Cat.# MAB307)”, for which the immunofluorescence score (arbitrary scale of 0-4) (score out of 4) was found to be 4.
